# Measurements taken from the supplement of paper PMC10567573.
# B1: VAMP4 (parent)
# chain: FLRGPSGPRFGPRNDKIKHVQNQV
# Variants of: B1
# Assay: protein stability index of a GFP-peptide fusion (GPS, HEK-293T) (PSI 1-6); higher = more stable
# Details: c terminus: a fixed tail appended
# 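Also: lentivirally expressed fusions sorted by FACS into six bins by GFP to DsRed ratio, PSI derived from sequencing read proportions per bin multiplied by bin number.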
row,Variant,protein stability index
1,P12E,3.63
2,P12S,3.27
3,P12L,2.2
4,P12V,2.86
5,P12Y,2.75
6,P12A,2.54
7,P12W,1.88
8,P12F,2.7
9,P12G,2.99
10,P12D,3.08
11,P12C,2.13
12,P12M,2.61
13,P12H,2.75
14,P12T,3.37
15,P12N,3.12
16,V20W,2.25
17,V20H,3.3
18,V20E,3.91
19,V20G,2.62
20,V20A,2.63
21,V20T,2.87
22,V20D,3.72
23,V20N,2.91
24,V20C,2.15

row,Variant,protein stability index
1,V20Q,2.24
2,V20I,2.69
3,V20L,2.9
4,P8H,2.52
5,P8L,1.61
6,P8V,2.54
7,P8C,2.44
8,P8M,2.53
9,P8F,2.28
10,P8W,1.79
11,P8K,2.07
12,P8N,2.63
13,P8T,2.71
14,P8A,2.62
15,P8G,2.41
16,P8Y,2.47
17,P8D,3.01
18,P8I,2.53
19,P8R,2.35
20,P8Q,1.96
21,Q21D,2.93
22,Q21T,2.29
23,Q21H,3.2
24,Q21V,2.83

row,Variant,protein stability index
1,Q21S,2.47
2,Q21K,2.81
3,Q21W,1.41
4,Q21C,1.68
5,Q21N,3.59
6,Q21L,1.75
7,Q21P,2.91
8,L2D,3.08
9,L2N,2.69
10,L2P,3.18
11,L2S,3.37
12,L2H,1.95
13,L2F,3
14,L2Q,2.73
15,L2E,3.71
16,L2Y,2.61
17,L2M,2.99
18,L2W,2.9
19,L2T,2.99
20,L2K,3.21
21,L2I,1.97
22,K18C,2.04
23,K18N,2.83
24,K18E,3.06

row,Variant,protein stability index
1,K18H,2.73
2,K18L,1.93
3,K18I,2.31
4,K18P,3.1
5,K18V,2.91
6,K18W,1.48
7,K18M,2.27
8,K18R,1.75
9,K18S,3.11
10,K18G,2.88
11,H19Y,1.93
12,H19Q,2.42
13,H19V,2.95
14,H19T,1.54
15,H19S,2.7
16,H19F,1.8
17,H19E,2.7
18,H19M,2.6
19,H19I,2.55
20,H19W,1.57
21,H19L,2.72
22,H19G,2.86
23,H19K,2.35
24,D15I,3.2

row,Variant,protein stability index
1,D15C,2.5
2,D15K,2.23
3,D15P,3.23
4,D15A,2.6
5,D15M,2.05
6,D15N,2.7
7,D15S,2.19
8,D15E,3
9,D15R,2.69
10,D15G,2.08
11,D15W,1.39
12,D15L,2.17
13,D15T,2.26
14,D15V,2.85
15,D15F,2.01
16,G7A,2.69
17,G7H,2.86
18,G7T,2.66
19,G7P,3.24
20,G7Q,2.68
21,G7Y,1.96
22,G7K,2.32
23,G7C,2.94
24,G7E,2.79

row,Variant,protein stability index
1,N14Q,2.91
2,N14V,2.73
3,N14I,2.2
4,N14R,2.68
5,N14S,2.67
6,N14E,3.39
7,N14P,3.04
8,N14F,2.29
9,N14D,2.96
10,N14W,2.25
11,N14H,2.73
12,N14G,2.92
13,N14C,2.73
14,Q23N,2.98
15,Q23K,2.22
16,Q23V,2.6
17,Q23C,2.23
18,Q23H,2.55
19,Q23I,2.14
20,Q23L,2.81
21,Q23D,3.04
22,Q23R,2.87
23,Q23M,2.2
24,Q23A,2.81

row,Variant,protein stability index
1,Q23E,3.39
2,Q23G,1.8
3,R13C,2.33
4,R13V,2.62
5,R13T,2.8
6,R13A,2.32
7,R13W,1.87
8,R13H,2.17
9,R13F,2.35
10,R13E,3.15
11,R13Y,2.31
12,R13D,3.39
13,R13M,2.89
14,R13I,2.43
15,R13S,3.11
16,R13N,3.74
17,R13Q,3.6
18,R13P,3.06
19,N22L,2.27
20,N22V,1.74
21,N22Y,2.14
22,N22T,3.02
23,N22W,1.42
24,N22A,2.58

row,Variant,protein stability index
1,N22K,2.88
2,N22C,2.56
3,N22D,3.48
4,N22M,1.57
5,N22I,1.51
6,N22E,3.94
7,N22G,2.77
8,N22R,2.25
9,R3M,2.04
10,R3N,2.93
11,R3K,3.04
12,R3Q,2.6
13,R3G,2.74
14,R3Y,1.99
15,R3F,1.96
16,R3C,2.77
17,R3E,3.56
18,R3T,3.25
19,R3D,3.29
20,R3A,2.54
21,R3S,3.3
22,R3L,2.42
23,G11V,1.97
24,G11M,2.52

row,Variant,protein stability index
1,G11W,2.45
2,G11S,2.65
3,G11H,2.81
4,G11Q,2.78
5,G11Y,2.16
6,G11P,2.91
7,G11E,3.51
8,G11A,2.75
9,G11R,2.34
10,G11C,2.37
11,P5V,2.29
12,P5T,2.86
13,P5M,2.37
14,P5C,2.48
15,P5L,2.59
16,P5R,2.72
17,P5F,2.29
18,P5D,3.36
19,P5N,2.94
20,P5S,2.96
21,P5W,1.55
22,P5K,2.95
23,P5E,3.15
24,P5Q,2.98

row,Variant,protein stability index
1,F1A,3.87
2,F1S,3.71
3,F1D,3.75
4,F1R,3.35
5,F1E,3.6
6,F1L,3.26
7,F1K,3.35
8,F1T,3.79
9,F1W,2.61
10,F1N,3.44
11,F1V,3.43
12,F1P,4.07
13,F1G,3.65
14,R9C,1.76
15,R9A,2
16,R9L,2.06
17,R9S,2.69
18,R9P,2.49
19,R9Y,2.04
20,R9Q,2.93
21,R9E,3
22,R9H,2.28
23,R9F,1.9
24,R9W,2.93

row,Variant,protein stability index
1,R9K,3.87
2,R9G,2.49
3,R9V,2.18
4,I17N,3.54
5,I17R,3
6,I17C,2.87
7,I17V,2.5
8,I17L,2.78
9,I17S,2.34
10,I17E,4.11
11,I17Q,2.72
12,I17T,3.16
13,I17D,3.57
14,I17A,2.88
15,I17K,2.81
16,I17H,3.42
17,F10N,2.95
18,F10D,3.15
19,F10H,3.07
20,F10R,3.15
21,F10K,2.57
22,F10A,2.72
23,F10E,3.29
24,F10P,3.02

row,Variant,protein stability index
1,F10S,2.86
2,F10W,2.09
3,F10L,3.21
4,F10V,2.67
5,F10G,2.89
6,F10Y,2.27
7,F10C,2.53
8,F10Q,3.14
9,F10T,3.36
10,F10M,3.24
11,K16Y,2.28
12,K16Q,3.11
13,K16W,1.86
14,K16D,3.13
15,K16G,3.33
16,K16M,2.42
17,K16P,2.76
18,K16H,2.48
19,K16E,3.18
20,K16F,2.25
21,K16L,2.34
22,K16A,3
23,K16C,2.18
24,K16S,2.81

row,Variant,protein stability index
1,K16V,2.46
2,S6G,2.49
3,S6I,1.97
4,S6P,2.79
5,S6K,2.65
6,S6W,1.29
7,S6Q,2.56
8,S6D,2.95
9,S6T,2.77
10,S6L,1.54
11,S6N,2.43
12,S6A,2.76
13,S6E,3.94
14,S6H,2.45
15,S6C,2.03
16,G4W,1.96
17,G4Q,3.2
18,G4A,3.07
19,G4R,3.22
20,G4P,3.12
21,G4I,2.05
22,G4T,3.17
23,G4D,2.99
24,G4S,3.06

row,Variant,protein stability index
1,G4L,2.59
2,G4Y,2.24
3,G4K,2.82
4,G4M,2.57
5,G4V,2.6
6,G4N,3.08
7,G4F,2.47
8,V24T,3.08
9,V24I,2.6
10,V24Y,3
11,V24N,3.49
12,V24P,2.94
13,V24M,3.02
14,V24Q,2.76
15,V24C,2.22
16,V24D,3.4
17,V24A,2.85
18,V24E,2.89
19,V24H,3.18
20,V24L,2.67
21,V24W,2.82
22,V24K,3.46
